The values below come from PMC9456106, “PET Probes for Preclinical Imaging of GRPR-Positive Prostate Cancer: Comparative Preclinical Study of [^68Ga]Ga-NODAGA-AMBA and [^44Sc]Sc-NODAGA-AMBA” (International Journal of Molecular Sciences, 2022).

A short description of series [1]: Octanol/water partition coefficient (logP). It is filed as physicochemical. Particulars: 1-octanol/water, triplicates. On the procedure:
For the determination of LogP value and the in-vitro serum stability, the same protocol was used as was described earlier by our research group. Briefly, for the determination of the partition coefficient (logP), 10 µL of [^68Ga]Ga-NODAGA-AMBA or [^44Sc]Sc-NODAGA-AMBA solution (approximately 5 MBq) was mixed with 500 µL of 1-octanol and 490 µL of water in a test tube. To reach equilibrium state, the mixture was firmly stirred and then centrifuged (20.000 rpm, 5 min). One-hundred microliters of the samples were pipetted into vials from each layer, and the radioactivity of the fractions was determined with a calibrated gamma counter (Perkin-Elmer Packard Cobra, Waltham, MA, USA). The measurements were performed in triplicates for both labelled compounds.

A short description of series [2]: In-vitro stability in mouse plasma, Na2EDTA and oxalic acid (radio-HPLC). It is filed as in vitro ADME. Conditions: mixed with mouse plasma, oxalic acid. How it is done: For in-vitro stability measurements, the labelled compounds were mixed with mouse plasma, Na2EDTA, and oxalic acid. Samples were injected at different time points to the HPLC with and without a column.
After 15 and 90 min incubation time, a 50 µL sample was taken and 50 µL abs. EtOH was added to the aliquots. Then, the samples were centrifuged (20.000 rpm, 5 min), and the supernatant was removed and diluted with the eluent of HPLC. This was followed by the performance of the analytical measurements.

A short description of series [3]: Ex-vivo biodistribution in healthy control mice. Details: species or system CB17 SCID mice. Particulars: i.v.; for accumulation in the adrenal glands / accumulation in the kidneys / accumulation in the pancreas / accumulation in the urine: 30-180 min, approx.; for radiotracer uptake in blood, liver, spleen, gastrointestinal tract and thoracic organs: each investigated time point. On the procedure: (§1) Thirty, 60, 120, and 180 min after the intravenous injection of 11.3 ± 1.4 MBq [^68Ga]Ga-NODAGA-AMBA or [^44Sc]Sc-NODAGA-AMBA healthy control and PC-3 tumor-bearing mice were euthanized with 5% Forane, sacrificed, and tissue samples were taken from the selected organs. The weight and the radioactivities of both the tumors and normal tissues were measured with calibrated gamma counter, and the uptake was expressed as %ID/g tissue.

A short description of series [4]: Pharmacokinetics (blood clearance) in healthy control mice. It is filed as in vivo. Conditions: healthy control CB17 SCID mice, i.v. How it is done:
(§2) For pharmacokinetic studies, healthy control CB17 SCID mice (n = 12) were injected intravenously with 10.8 ± 1.6 MBq of [^68Ga]Ga-NODAGA-AMBA or [^44Sc]Sc-NODAGA-AMBA under isoflurane anesthesia. Thereafter, approximately 30 μL blood samples were collected from the saphenous vein into a capillary tube at the following time points: 30, 60, 120, and 180 minutes. The volume of the blood was determined using a digital caliper. Blood samples were placed in a γ-counter and the radioactivity of each sample was measured. Results were expressed as a percentage of the injected activity per mL (% ID/mL). For the determination of in vivo serum stability of [^68Ga]Ga-NODAGA-AMBA and [^44Sc]Sc-NODAGA-AMBA, blood samples were taken from the mice at the previously mentioned time points (30, 60, 120, and 180 min). Firstly, the blood samples were centrifuged at 4°C, 10,000 rpm for 5 min. Thereafter, 50 μL samples were taken from the supernatant and mixed with ice-cold abs. ethanol (50 μL) and centrifuged again at 4°C, 10 000 rpm for 5 min. The supernatants were analyzed by analytical radio-HPLC. In all cases, the radio-HPLC chromatograms were compared to the original chromatograms of the radiotracers to find any metabolite forms.

Series [5] in a line: In-vivo stability by analytical radio-HPLC of blood samples. Details: species or system CB17 SCID mice. Conditions: healthy mice, samples at 30, 60, 120, 180 min. On the procedure:
as §2

A further series concerns PC-3 tumors. The experiment in a line: Ex-vivo biodistribution of PC-3 tumor-bearing mice. It is filed as in vivo, CB17 SCID mice. Conditions: for accumulation in PC3 tumors, blocked: 15 mg/kg BBN blocking, 15 mg/kg. How it is done:
For animal experiments, 12-week-old female CB17 SCID (n = 64) were used. For the induction of GRPR-expressing tumor model, mice were anesthetized with a dedicated small animal anesthesia device (Tec3 Isoflurane Vaporizer, Eickemeyer Veterinary Equipment, Sunbury-on-Thames, UK) applying 3% isoflurane (Forane, AbbVie), 0.4 L/min O2, and 1.4 L/min N2O, and 5 × 10^6 PC-3 tumor cells in 0.9% NaCl (100 µL) were injected subcutaneously into the left shoulder area of CB17 SCID mice. In-vivo and ex-vivo experiments were carried out 14 ± 1 days after subcutaneous injection of tumor cells at the tumor volume of approximately 86 mm^3.
as §1
For blocking experiments, PC-3 tumor-bearing mice were injected intravenously with 15 mg/kg of BBN (Sigma-Aldrich) 30 min prior to the injection of 11.3 ± 1.4 MBq [^68Ga]Ga-NODAGA-AMBA or [^44Sc]Sc-NODAGA-AMBA and in-vivo and ex-vivo organ distribution studies were performed as described above.

Regarding `CSCC[C@H](NC(=O)[C@H](CC(C)C)NC(=O)[C@H](Cc1c[nH]cn1)NC(=O)CNC(=O)[C@@H](NC(=O)[C@H](C)NC(=O)[C@H](Cc1c[nH]c2ccccc12)NC(=O)[C@H](CCC(N)=O)NC(=O)c1ccc(NC(=O)CNC(=O)CCC(C(=O)O)N2CCN(CC(=O)O)CCN(CC(=O)O)CC2)cc1)C(C)C)C(N)=O` (stereo partly shown) [[^44Sc]Sc-NODAGA-AMBA] [metal not drawn], in series [1], the “octanol/water partition coefficient (logP)” value is recorded as −2.81 ± 0.14. The “RCP, in-vitro stability” value in series [2] (15 min) is “over 98%”. Moreover, in series [2] (90 min), the “RCP, in-vitro stability” value is recorded as “over 98%”. For the same molecule, in series [3], the “accumulation in the adrenal glands” value is given as 0.5–3 %ID/g, the “accumulation in the kidneys” value was 2–8 %ID/g, the “accumulation in the pancreas” value is recorded as 1–4 %ID/g and the “accumulation in the urine” value is given as 250–450 %ID/g. Also, the “radiotracer uptake in blood, liver, spleen, gastrointestinal tract and thoracic organs” value in series [3] was “Low radiotracer uptake”. Further, the “half-life in the blood” value in series [4] is given as “less than 30 minutes”. Moreover, the in-vivo stability entry in series [5] is “remained stable”. Also, in the series on PC-3 tumors (60 min), the “accumulation in PC3 tumors, blocked” value was found to be 0.79 ± 0.16 %ID/g. The “accumulation in PC3 tumors” value in the series on PC-3 tumors (60 min after i.v. injection) was determined as 4.56 ± 0.45 %ID/g. Besides, the “accumulation in PC3 tumors, blocked” value with PC-3 tumors (120 min) is 0.69 ± 0.17 %ID/g. Also, the “accumulation in PC3 tumors” value in the series with PC-3 tumors (120 min after i.v. injection) was determined as 4.14 ± 0.47 %ID/g.
`CSCC[C@H](NC(=O)[C@H](CC(C)C)NC(=O)[C@H](Cc1c[nH]cn1)NC(=O)CNC(=O)[C@@H](NC(=O)[C@H](C)NC(=O)[C@H](Cc1c[nH]c2ccccc12)NC(=O)[C@H](CCC(N)=O)NC(=O)c1ccc(NC(=O)CNC(=O)CCC(C(=O)O)N2CCN(CC(=O)O)CCN(CC(=O)O)CC2)cc1)C(C)C)C(N)=O` (stereo partly shown) [[^68Ga]Ga-NODAGA-AMBA] [metal not drawn]: the “octanol/water partition coefficient (logP)” value in series [1] is on record as −2.75 ± 0.18. Besides, the “RCP, in-vitro stability” value in series [2] (15 min) is listed as “approximately 92%”. In series [2] (90 min), the “RCP, in-vitro stability” value is “approximately 85%”. Also, in series [3], the “accumulation in the adrenal glands” value is 0.5–3 %ID/g, the “accumulation in the kidneys” value is given as 2–8 %ID/g, the “accumulation in the pancreas” value is 1–4 %ID/g and the “accumulation in the urine” value was 250–450 %ID/g. Moreover, in series [3], the “radiotracer uptake in blood, liver, spleen, gastrointestinal tract and thoracic organs” value is on record as “Low radiotracer uptake”. For the same molecule, the “half-life in the blood” value in series [4] is on record as “less than 30 minutes”. In addition, the in-vivo stability result in series [5] is recorded as “remained stable”. Further, in the series on PC-3 tumors (60 min), the “accumulation in PC3 tumors, blocked” value is 0.60 ± 0.22 %ID/g. In addition, the “accumulation in PC3 tumors” value with PC-3 tumors (60 min after i.v. injection) amounted to 3.78 ± 0.93 %ID/g. Moreover, the “accumulation in PC3 tumors, blocked” value with PC-3 tumors (120 min) stood at 0.48 ± 0.14 %ID/g. The “accumulation in PC3 tumors” value with PC-3 tumors (120 min after i.v. injection) is 3.29 ± 1.20 %ID/g.
